Data on 19 sequences can be found in a protein production outcome set (Wang et al. 2014).
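Note: failed if final PepcDB status was selected cloned or expressed and not failed if soluble or beyond.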

The nature of this data set: label from the status in PepcDB records.
Consider “MTSFEDADTEETVTCLQMTVYHPGQLQCGIFQSISFNREKLPSSEVVKFGRNSNICHYTFQDKQVSRVQFSLQLFKKFNSSVLSFEIKNMSKKTNLIVDSRELGYLNKMDLPYRCMVRFGEYQFLMEKEDGESLEFFETQFILSPRSLLQENNWPPHRPIPEYGTYSLCSSQSSSPTEMDENES”, for which the protein production entry is “failed”.
Next, “MTSFLSFSAISAHPPTFSGASFRPRSFSPRLFKSCVKCTYAEAGLSSASWSAPIDIVADVKSERVVVLGGNGFVGSAICKAAISNGIEVVSVSRSGRPNFEDSWLDQVTWVTGDVFYLNWDEVLLGATAVVSTIGGFGNEEQMKRINGEANVTAVNAAKDFGVPKFVLITVHDYNLPPFILSNGYFTGKRNAEAELLSKYPTSGVVLRPGFIYGKRKVNGIEVPLDLVGEPLDKIYDSAERFIRPLRSLPASDLILAPPVNVDDLALAVINAVKDDDFFGIFTIEQIKEAAAKMRA”: “failed”; “MTSGGNSIEPSVVAEAEKMLFCYQYDQTITISITSSADPCPLCNGGFLDEYVDPNPNPIPNLILPMSDPISSRFSFIPVMDFTNPSFLGESMEPQSTQQQLNAFDPNQLSDQANPLAGNHGDYFFGRGLEDLI”: “failed”.
Next, “MTSHKPYWPIGVFTSVDAGLGVHLEVAQDLKVPTVQVHAPHPHTRTREHAQAFRAKCDAAGIQVTVIFGGFDGESYADIPTTARTVGLVPLETRASRVAEMKEISDFASWVGCPAIGLHIGFVPESSSPDYSELVRVTQDLLTHAANHGQAVHLETGQESADHLLEFIEDVNRPNLGINFDPANMILYGTGNPIEALRKVARYVRSIHCKDALWAPVNERGKSWGQEVALGTGDVGMEAYLTTLWEIGYRGPLTIEREIPHDPVQQKKDLASALELLTGLRKKIANC”: “not failed”; “MTSIHVQVPATTANIGAGFDCLGAALSLHNQFQFRLAGESEPFFSLELVGADVETQKLEATADNLLYRAFAKVFATLGQPVPHVNIAIDLKVPLSRGLGSSATAIVGGLVGANALAGSPLSQREIMNLAIEMEGHPDNVVPALLGGCQLSVKHQQDWVI”: “failed”; “MTSKKNSDVIYKSSSNILNEMRAGLIKGAGQDMERIKKRPLIAIANSHSELTTGHAHLAGLGAKVKQGIIAAGGEFAEFNVPAPCDGIAMAHDGMRYVLAQRDLIADIVETHVRSQAFDAVVFIAGCDKINPGMMMAMGRLDLPSLFLAGGPGQMNIRNTPTFNGNIDHGNYFNSPLEFKETFNCASCGACEFMGTANTFQCLAEALGICLPGSANIPAWHSDKLAAARATGEHIVHLFKEGITARQIMTKEAFNNALVMNMAIGGSTNAALHLPAIAHSAGIEMDIKAFETVDHIPTLLAISPNGPYGVQDLWAAGGMPAVMKVMQSDLDTSCLTVTGLPLQATIDNATILNPKVIPERSKPNRQEPGITVLRGNLAPEGCVIKQAGVKPELMYTSGPAICFDSEDDAINMIQDGKLKEGQVIVLRYMGPKGAPGMPEMLGATLALKVAGLSSASLITDGRFSGATSGPCVGHITPEASNGGFIAFIEDGDIITVDIKNRSIHCDVSDEEIEKRKQNWAPTIKPVAFGFMERYRKHVKTASEGAILD”: “failed”.
With “MTSLEEITKAIMADSQNKVFTEKNIEPLFAAPKTARINIVGQAPGIKAQESRLYWNDKSGDRLREWMGVDYDTFYHSGYFAVIPMDFYYPGKGKSGDLPPRKGFAQKWHQPILDLLPDIQLTILIGNYAQKYYLHQKSSVKLTDTVAHYKKYLPDYFPLVHPSPRNQIWMSRHPWFEAQVVPDLKKIIQQIIQSS” the entry was “not failed”; with “MTSLSQFEPLFLEFMQQEMQVDAAHDIEHVKRVVKTAKQLCDEENADIAIVLPAAYLHDCFTYPKDHPNRKQSSAIAAKKAIAYLESIQYPQHYHDAIAHAIEAHSFSANIRPNTLEAQIVQDADRLDALGAIGVTRCIQVSTHFNAQLYNDNDMFAKERELNDKQFTVDHFQTKLFKIADTMNTESAKLEANKRKAFMQTYLKQLHDEVTALEHHHHHH”, “not failed”.
Turning to “MTSRSDAGVFHVRALLLGVLYVCGSLLFVTSMLSKTTTLTNVSSNTCPTVRGVDQIIVLLVDALRPDFVLPALSPHYLDGVECSTVSARGVDGNVNGDRRSTLTYMEENLKRVAHPSHGFFFLSDTPTITAQRIKAITTGTTPAFLEVGTNLNTDEVQIDNILLQLRRRSILLGDDTWLNLFPDHQGNASFWKHTHALPPYNVSDFDTNDATVIADLMPLLLSETAEQAPDDYARLIIGHLLAVDHVGHRHHASHPAMYKKLSDINEMLRNVTKRLREERQTSMRTLLVVFGDHGMTNSGDHGGDSEGERDSFMYAELFESSRDSVHAPVNSSDKFQRKNNLTEKRWEDNIDEDLSRLKACRDVAGVHPGKLSAVHQVDLTPTLALLLGVPIPFSNVGRVIPEMVALSNPDVNMSASEECNWKQLTSYFDEAGLYIKPEWKDSNLSLRRRIAQMSHFARSIRMEIRRDGAFIGSSLCMVTALSLLRNGDIQQVICGRSVLGIGTLFLLVLRLLAVFANSFIIKESVEVFCLLQLLLIAALFVAPTKGGGRHASFLIVILLVLLRVAVPLVSRERSHITHTAEATSHLEMWLAKQFPEFHYNSVGIILGAALFVFSAPTMPHRLMGIVLGTVAAVCYGQPLIHHIGPFVFFALTFFFRGMGPLRYTALVLWSSSLCNDNYVASASIAVSGVLLPVVLTATRHLPVVPQALMLHLYMWVSFFAQGNQCLLNTVDLNASFVGLPFNSVALGSVFVLSRLCNAFLFAPIAVMITYGTDRARGWRVCYLLLYITLAQSAVSSFNGYIQKSHLMFFPIFCPKFIFDFCIGMAACIGYALAALLA”, the protein production entry is listed as “failed”.
With “MTSRTRDTDTDRATDTDTDRATATLDHAMARSQGLDTLLRDLTDRAVVQVPGAVACSVTVRRADRLMTLAGSTGLPSGLDLRQYENGSGPCVDAAESGDAQYCADLAEETRWPAYTEYALATGVRCVLALPLPIEGETGAALNLYGLVPGSLVQGLDAARAFAERAADAVNEALRIERRQASAADVRTALLSRSVIDQAVGMLMARERIDAHRALERLRRASQDRNVKLRDLCAQVVARASGGASHRGQ” the entry was “failed”; with “MTSTPPTPGPKLLEERSLGGILIHFLAIPTGVVGAGLLYLLATDEFTKRNARNALDWHLTVLLITAVTFGSVFTYAELTGQGVTDVSIFPSSVSTVAGIVTSALLMLWFAVTAWTFAVGLIAMVKAIFGTAWRYPFSLALVERFGSHINLSDRWPLVILGYIVLSPLLIWAVFFVPANDAIVILSAFGLLGLILGLTPLTGIAMYRHGKEHWLQDADQQSHVFAHVGLPILVAAIGYVVSWSFTQSVSPQGDAMYVFLAAFWISSIVYLIRWWTTSSE”, “failed”.
With “MTSVSGCGSVSLITNRSAFLGNGLQHRAVFLKPWSSSSLQSRSMVVEAKTKTSSEDRIARHSRIRKKVNGTTERPRLCVFRSNKHLYVQVIDDTKMHTLASASTKQKPISEEFDYTSGPTIEVAKKVGEVIAKSCLEKGITKVAFDRGGYPYHGRIEALAAAAREHGLQF” the entry was “failed”.
With “MTTATSERQKTLLFKAAERQWKEEFAGKETDIRKVDCNIYKGILYQLEIRQVFLDTSLSLKKLSALLETNQTYLSNVVNKYFGCNLKELVNTYRVEYAKELLCSRRCALTELPCSCGFASKSAFYSAFSRIVGVSPLSYQTQERRLEHHHHHH” the entry was “not failed”; with “MTTAYNHLCTAFTRLSRFEHLSAIAGWDMQTMMPAKGNLARSEAMAELNVLQHQILTAPQIGEWLKQAEQELLDEQSIDELKLANLREMHRHYHNAVLLPESLVEAKSLAGARCEHAWRQQRIANDWAGFAENLREVVKLSREEAKIRAEAAGTSGYDALLNLYEPGTNSADIDRIFGDLKQWLPALLQKVTTKQQSSEPCLIPQGPFDLEKQRQLGLSVMKVLGFDFNGGRVDVSVHPFCGGVPQDVRITTRYNNQEFLSALMGIVHETGHARYEQNLPREWLGQPIAHARSTAIHESQSLLFEMQLARSNEFLQVIHPLVIQQFGEQPAFAEHNFIALNQRVKTGLIRVDADEVSYPAHVILRYEIEKALIGGEIDVEDIPALWNEKMQQYLGINTEGDYRNGCMQDIHWTDGAFGYFPTYTLGAMYAAQLFHAARSAIPALDSHIANGNLAPLLNWLQQNIWQHGSRYPTAELITKATGEPLNPRYFRQHLERRYL”, “failed”; with “MTTCGEFLVKQLEAWGVETVFGIPGVHTVELYRGLPGSRIRHVTPRHEQGAGFMADGYARVTGKPGVCFIITGPGMTNILTAMAQAYADSIPMLVISSVNERARLAHGNGYLHELPNQRNLVGNVCAFSHTLMSAEELPAVLARAFAVFDSERPRPVHIELPLDVITAPAEHLALRPRTVTSRPAPALAPLREAAARLRNAKKPLLLLGGGCVEAAAEARALAAALDAPTALTINAKGLLPADHPLLLGSNQSCVPVRELATEADVVLAIGTELGETDYDVVFDGGFALDGELIRIDIDPQQLMRNYTPSLAIHSDARLAMRVLLAELPGGEASPDSPGARRAAAVRQRLAEDFAGWSHYRQLFAAILAEWPDARFVGDSTQTVYSGNHLVDLDEPRRWFNASTGYGTLGYGLPAAIGAKLGEPGRPVVSLMGDGGLQFTLPELASAVEAKVGIVVLLWNNHGYGEIKRYMERREITPLGVDIYTPDFLAIARGFGCAAERARDLEHLRELLRGAPADRPLIVEVLQAAPFHP”, “failed”.
“MTTEAPIWPAELFEDLDRNGPIPLYFQVAQRLEDGIRSGVLPPGARLENEISVAKHLNVSRPTVRRAIQEVVDKGLLVRRRGVGTQVVQSHVTRPVELTSFFNDLKNANLDPKTRVLEHRLLAASSAIAEKLGVSAGDEVLLIRRLRSTGDIPVAILENYLPPAFNDVSLDELEKGGLYDALRSRGVVLKIANQKIGARRAVGEESTLLDIEDGGPLLTVERVALDNSGQVIELGSHCYRPDMYNFETTLVAR”: the protein production result is reported as “not failed”.
Next, “MTTETIQSNANLAPLPPHVPEHLVFDFDMYNPSNLSAGVQEAWAVLQESNVPDLVWTRCNGGHWIATRGQLIREAYEDYRHFSSECPFIPREAGEAYDFIPTSMDPPEQRQFRALANQVVGMPVVDKLENRIQELACSLIESLRPQGQCNFTEDYAEPFPIRIFMLLAGLPEEDIPHLKYLTDQMTRPDGSMTFAEAKEALYDYLIPIIEQRRQKPGTDAISIVANGQVNGRPITSDEAKRMCGLLLVGGLDTVVNFLSFSMEFLAKSPEHRQELIERPERIPAACEELLRRFSLVADGRILTSDYEFHGVQLKKGDQILLPQMLSGLDERENACPMHVDFSRQKVSHTTFGHGSHLCLGQHLARREIIVTLKEWLTRIPDFSIAPGAQIQHKSGIVSGVQALPLVWDPATTKAV”: “not failed”.
With “MTTFHADSSITRTFWRYAIPSIAAMVVSGLYQIIDGIFVGHYIGFEGLAGINMAWPAICILGAIGVMVGMGTGSVMSIYRGENKLEKTKVALTTGFWLLAILSIIAISCIVLLAKDILLAQGAEGQNFAYAMDYINVLMFGGFFTACATALPMLVRNDESPNVATFLLVIGALINIVLDYVFIGVMGLGLSGAALATLMAQACVTVLGIGYFFTQRSSIQITLQEVLFSWNKAKQSLSLGASALVMYLYGSFVVAMHNALMMYYGSATTVGAYAIVGYLFMLYYLLAQGIAEGAQPPISYYFGARENKKVYQIFKIALKWVIITGIGWVTILNISPELTTALFTNGDKALIAETIVGIRYHLFAMFLDGMIVLITIYFLSVNEGKKAMVISISNIVIQLPFLLILPKWFGIDGVWLAMPVSNIALIICIAPMVWNHLKTQKIIKPLPLTSTSVMSH” the entry was “failed”.
For “MTTGVRRRMGVEERRQQLIGVALDLFSRRSPDEVSIDEIASAAGISRPLVYHYFPGKLSLYEAALQRASDDLADRFVEPRQGPLGARLLRVMGRYFDFVDEHGPGFSALMRGGPAVGSTTTNALVDSVRQAAYVQILSHLDVTEPPARLELVVRSWISLAESTALLWLDGRRIPRAELETQLVHDFAALMAVSAAYDEEMGALVRRVLADEPEDGPFGDLVDRLLALSAR”, the protein production entry is given as “not failed”.
